Results as given in the nanobody polyreactivity screen of Harvey et al. (2022).

Assay: yeast display, Sf9 membrane polyspecificity reagent, FACS + sequencing; frameworks hold sequencing errors
Outline: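 A synthetic nanobody library was expressed on Saccharomyces cerevisiae BJ5465 by galactose induction for 36–48 hours. The library was stained for 1 hour at 4 °C with 10% biotinylated, detergent-solubilized Sf9 membrane reagent and enriched with streptavidin microbeads before FACS. Low and high (top ~1%) gates were set on anti-HA fluorescence for expression and streptavidin fluorescence for reagent binding, and each polyreactivity label reflects the gate of origin.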

Sequence: QVQIVESGGGLLQAGGSLRLSCAASGLTFGSYAMGWYRQAPGKERELVAAISRSGGSTYYADSVKGRFTISRDNAKNTVYLQMNSLKPEDTAVYYCNAVNPYYAPTERRVGFDYWGQGTQVTVSS
- polyreactivity (PSR sort gate): high polyreactivity

Sequence: QVQLVESGGGLVQAGGSLRLSCAASGLTFTSYVMGWYRQAPGKERELVAAIRWSGGRTYYADSVKGRFTISRDNAKNTVYLQMNSLKPEDTAVYYCAAQWYSGSHGYYYWGQGTQVTVSS
- polyreactivity (PSR sort gate): high polyreactivity

Sequence: QVQLVESGGGLVQAGVSLRLSCAASGSTFTYYAMGWYRQAPGKERELVAAITNSGGSTYYAVSVKGRFTISRDNAKNTVYLQMNSLKPEDTAVYYCAATRVDSDDRTRFYYWGQGTQVTVSS
- polyreactivity (PSR sort gate): high polyreactivity

Sequence: QVQLVDSGGVLVQAVGSLRLSCAASGIIFDWYAMGWYRQAPGKERELVAAITANSDSTYYADSVNGRFTISRDNAKNTVYLQMNSLKPEDTAVYYCAARRQHRGANGGDYCGQGTQVTVSS
- polyreactivity (PSR sort gate): high polyreactivity

Sequence: QVQLVESGGGLVQAGGSLRLSCAASGRTFFSYTMGWSRQAPGKERELVAAISDSDGRTYYADSVKGRFTISRDNAKNTVYLQMNSLKPEDTAVYYCAAVPDKDWSRVRRYLFEDIYWGQGTQVTVSS
- polyreactivity (PSR sort gate): low polyreactivity

Sequence: QVQLVESGGGLVQAGGSLRLSCAASGFIFSYNAMGWYRTAPGTERELDAAISSSGGTTYYADSVKGRFTISRYNAKNTVYLQMNSLKPEDTAVYYCAADGRTYHHLDGGWYRYDYWGQGTQVTVSS
- polyreactivity (PSR sort gate): low polyreactivity

Sequence: QVHLVESGGGLVQAGGSLRLSCAASGYTFRYYAMGWYRQAPGKERELVAAINWSGGSTYYADSVKGRFTISRDNAKNTVYLQMNSLTPEDTAVYYCAADPDGDLDIDYDYWGQGTQVTVSS
- polyreactivity (PSR sort gate): low polyreactivity

Sequence: QVQLVESGGGLVQAGGSLRLSCAASGRIFFPYAMGWYRQAPGKERELVAAINYSGGSTYYADSVKGRFTISRDNAKNTVYLQMNSLKPEDTAVYYCADGYFWALYVRKYDYWGQGTQVTVSS
- polyreactivity (PSR sort gate): high polyreactivity

Sequence: QVQLVESGGGLVQAGGSLRLSCAASGSILPVYVMGWYRQAPGKERELVAAISSGGSTTYADSVKGRFTISRDNAKNTVYLQMNSLKPEDTAVYYCNADVVRGYSYIYRWPFRYAYDYWGQGTQVTVSS
- polyreactivity (PSR sort gate): low polyreactivity

Sequence: QVQLVESGGGLVQAGGSLRLSCAASGSIFQHYAMGWYRQAPGKERELVARINWSGGRTYYADSVKGRFTISRDNAKNTVYLQMNSLKPEDTAVYYCNARYYYWGKAAFNYWGQGTQVTVSS
- polyreactivity (PSR sort gate): high polyreactivity

Sequence: QVQLVESGGGLVQAGGSLRLSCAASGSTFAYYVMGWYRQAPGKERELVAAITGTGGSTYYADSVKGRFTISRDNAKNTVYLQLNSLKPEDTAVYYCAAETPIYYGYWYDSWGQGTQVTVSS
- polyreactivity (PSR sort gate): high polyreactivity

Sequence: QVQLVESGGGLGKAVGSLRLSCAASGSTFEYYALGWYRLAPGTETELVAAISTAGSTYYADSVKGRFTISRDNAKYTVYLQMNSLKPEDTGVYYCAVDPSPRSYYNYYWGQGTQVTVSS
- polyreactivity (PSR sort gate): high polyreactivity

Sequence: QVQLVESGGGLVQAGGSLRLSCAASGRIFGAYAMGWYRQAPGKERELVAAITGGGSTYYADSVKGRFTISRDNAKTTVYLQMKSLKPEDTAVYYCAADYYWTYSYYYERFDYWGQGTQVTVSS
- polyreactivity (PSR sort gate): low polyreactivity

Sequence: QVQLVESGGGLVQAGGSLRLSSASSGFTFSYYAMGWSRPAPGKERELVAAITSDGGRTYYADSVKGRFTISRDNAKNTVYLQMNSLKPEDTAVYYCAARTRYRGIKGYNYWGQGTQVTVSS
- polyreactivity (PSR sort gate): high polyreactivity

Sequence: QVQLVESGGGLVQAGGSLRLSCAASGRTFAAYAMGWYRKAPGKEREFVADITYSGGSTTYADSVKGRFTISRDNAKNTVYLQMNSLKPEDTAVYDCIKLAYTRGWRGFVWYDYWGQGTQVTVSS
- polyreactivity (PSR sort gate): low polyreactivity

Sequence: QVQLVESGGGLVQAGGSLRLSCAASGRTFYNAMGWYRQAPGKERQLVAAITTGGGTKYADSVKGRFTISRDNAKNTVYLEMNSLKPEDTAVYYCNTDEWNHFYHGAHKYDYWGQGTQVTVSS
- polyreactivity (PSR sort gate): low polyreactivity

Sequence: QVQLVESGGGLVQAGGSLRLSCAASGLIFADNAMGWYRQAPGKEWELVASITLGDTSTYYADSVKGRFTISRYNAKNTVYLQMNSLKPEDTAVYYCAKDVYPSVSLYELPDDYWGQGTQVTVSS
- polyreactivity (PSR sort gate): low polyreactivity

Sequence: QVQLVESGGGLVQAGGSLRLSCAASGSTFYRYAMGWYRQAPGKERELVAAIDSSGGSTYYPDSVKGRFTISRDNAKNTVYLQMNSLKPEDTAVYYCATDLPPGGYDSWGQVTQVTVSS
- polyreactivity (PSR sort gate): low polyreactivity

Sequence: QVQHVESGGGLVQAGGSLRLSCASSGSIFYFYAKGWYRQAPGKERELVAAISWSGGSTYYADSVKGRFTISRDNAKNTFYLQMNSLKPEDTAVYYCNAADYWYWENDYWGQGTQVTVSS
- polyreactivity (PSR sort gate): low polyreactivity

Sequence: QVQLVESGGGLVQAGGSLRLSCAASGSTSDINAMGLYRQAPGKERELVAVITDSSNTDYADSVKGRFTISRDNAKNTVYLQMNSLKPEDTAVYYCAADRDEPDPYDYWGQGTQVTVSS
- polyreactivity (PSR sort gate): low polyreactivity

Sequence: QVQLVESGGGLDQAGGSLRLSCPASAITFQLYAKGWYRQAPGKERELVAAISRSGSGTYYADSVKGRFTISRDNAKNTVYLQMHSLKPEDTAVYYCAALGPGYYWGQGTQVTVSS
- polyreactivity (PSR sort gate): high polyreactivity

Sequence: QVQLVESGGGLVQAGGSLRLSCAASGRIFPAYTMGWYRQAPGKERELVAAISRGGRTKYADSVKGRFTISRDNANNTVYLQLNSLKPEDTAVYYCDTVTTYGGVWYDYWGQGTQVTVSS
- polyreactivity (PSR sort gate): high polyreactivity

Sequence: QVQLVESGGGLVQAGGSLRLSCAASGRIFGYNAMGWYRQAPGKERELVAAINSDGSKNYADSVKGRFTISRDNAKNTVYLQMNSLKPEDTAVYYCAADGHVGPLGVSFDSWGQGSQVTVSS
- polyreactivity (PSR sort gate): low polyreactivity

Sequence: QVQLVESGGGLVQAGGSLRLSCAASGRIFGQYAMGWYRQAPGKDRELVAAISWRGGTTYYADSVKGRFTISRDNAKNTVYLQMNSLKPEDTAVYYCNADVWVYPYDYWGQGTQVTVSS
- polyreactivity (PSR sort gate): low polyreactivity

Sequence: QVQLVESGGGLVQAGGSLRLSWAASGSTLLSNAMGWSTQAPGKERELVAAINYSGGRTYYADSVKGRFTISRDHAQNTVYLQMNSLKPEDTAVYYCNALSSGHGSSSRYDYWGQGTQVTVSS
- polyreactivity (PSR sort gate): low polyreactivity

Sequence: QVQLVESGGRLVQAGGSLRLSCAASGINFGYYAMGLYRQAPGKEMELVAAINKSGTSTYYADSVKGRFTISRDNAKNTVYLQMNSLKPEDTAVYYCAVDYARDKGYPYGYWGQGTQVTVSS
- polyreactivity (PSR sort gate): low polyreactivity

Sequence: QVQLVESGGGLVQAGGSLRLSCAASGSIFSYYAMGWYRQAPGKERELVAAITWSGGTTYYADSVKGRFTISRDNAKNTVYLQMNSLKPEDTAVYYCAADTYDYWYGVWLEYDYWGQGTQVTVSS
- polyreactivity (PSR sort gate): high polyreactivity

Sequence: QVQLVESGGGLVQAGGSLRLSCAASGSTINYNAMGWYRQAPGKERELVAAIDSGVSTNYADSVKGRFTISRDNAKNTVYFQMNSLKPEDTAVYYCNADPDYFDYWGQGTQVTVSS
- polyreactivity (PSR sort gate): low polyreactivity

Sequence: QVQLVESGGGLVQAGGSLRLSCAASGIIFGYYAMGWYRQAPGKERELVAAISKRGGSTNYADSVKGRFTISRDNAKNTVYLQMNSLKPEDTAVYYCAARYPQGGTGKATYVRSRSGYWGQGTQVTVSS
- polyreactivity (PSR sort gate): high polyreactivity

Sequence: QVQLVESGGGLVQAGGSLRLSCAAYGSTFGGNARGWYIQAPGKERELVAVISKRGGSTYYADSVKGRFTISRDYEKNTVYLQINSLKPEDTAVYYCAATYSRYWSPTYDYWGQGTQVTVSS
- polyreactivity (PSR sort gate): high polyreactivity

Sequence: QVQLVESGGGLVQAGGSLRLSCAASGITFPGYAMGWYRQAPGKERELVAAISIGGITYYADSVKGRFTISRDNAKNTVYLQMNSLKPEDTAVYYCAKDVTDPSSRSDPSGDDYWGQGTQVTVSS
- polyreactivity (PSR sort gate): low polyreactivity

Sequence: QVQLVESGGGLVQAGGSLRLSCAASAGIIRTYAMGWYRQAPGKEMELVAAITFSAGSTFYADSVKGRFTISRDNAKNTVYLQMNSLKPEDTAVYYCNKDGGGDSYWYDYWGQGTQVTVSS
- polyreactivity (PSR sort gate): low polyreactivity

Sequence: QVQLVDSGGGLVQAGGSLRLSCAASGFTFAYYALGWYRPAPGKEREFVAAITSGGRTNYADSVKGRFTISRDNAKNTVYLQMNSLKPEDTAVYYCAKYRRGGSRHYSVFNHDYWGQGTQVTVSS
- polyreactivity (PSR sort gate): high polyreactivity

Sequence: QVQLVESGGGLVQAGGSLRLSCAASGSTIRGYAMGWYRQAPGKEREFVAAITVNGGNTYYADSVKGRFTISRDNAKNTVYLQMNSLKPEDTAVYYCNVPVTVGKDSITEHYYWGLGTQVTVSS
- polyreactivity (PSR sort gate): low polyreactivity

Sequence: QVHLVESGGGLVQAGGSLRLSCAASGRTFYYNAMGWYRQEPGKEREFVAAIRYSGSITYYADSVKGRFTISRDNAKNTVYLQMNSLKPEDTAVYYCAADYVSRRYYYWGQGTQVTVSS
- polyreactivity (PSR sort gate): high polyreactivity

Sequence: QVQLVESGGGIVQAGGSLRLSCAASGSIFSGNAMGWYRQAPGKERELVAAIDRGGSTYYADSVKGRFTISRDNAKNTVYLQMNRLKPEDTAVYYCAKEYIVYNWAFYYWGQGTQVTVSS
- polyreactivity (PSR sort gate): low polyreactivity

Sequence: QVQLVESGGGLVQAGGSLRLSCAASGRIFSRNAMGWYRQAPRKEREFVAAISRRGTSTYYADSVKGRFTISRDNAKNTVYLQMHSLKPEDTAVYYCNAGGSPWYKPVYYRALYDYWGQGTQVTVSS
- polyreactivity (PSR sort gate): high polyreactivity

Sequence: QVQLVESGGGLVQAGGSLRLSCAASGFTFYRYAMGSYRQAPGKERELVAAITFRGDSTYYADSVKGRFTISRDNAKNTVYLQMNSLKPEDTAVYYCAADRPSGWYSYLSLYIVRRGYWGQGTQVTVSS
- polyreactivity (PSR sort gate): low polyreactivity

Sequence: QVQLEESGGGLVQAGGSLRLSCAASGSIFRVYAMGWYRQAPGKERELVAAISQSADSTYYADSVKGRFTILRDNAKNTVYFQMNSLKPEDTAVYYCAAEYPYIYRFDYWGQGTQVTVSS
- polyreactivity (PSR sort gate): low polyreactivity

Sequence: QVQLVESGGGLVQAGGSLRLSCAASGFIFRVNAMGWYRQATGKERELVAAISASGGTTYYADSVKGRFTISRDIAKNTVYLQMNSLKPEDTAVYYCNAPSRTRYDYWGQGTQVTVSS
- polyreactivity (PSR sort gate): low polyreactivity

Sequence: QVHLVESGGGLVQAGGSLRLSCAASGSTIRYYAMGWYRQAPGKERELVAAITKSGGSTYYADSVKGRFTISRDNAKNTVYLQMNSLKPEDTAVYYCAAFRRWYYPALSEHDYWGQGTQGTVSS
- polyreactivity (PSR sort gate): low polyreactivity

Sequence: QVQLVESGGGLVQAGGSLRLSCAASGLIFGYYAMGWYRQAPGKERELVARITRRGGSTYYADSVKGRFTISRDNAKNTVYLQMNSLKPEDTAVYDCAADWYSPRISREYDYWGQGTQVTVSS
- polyreactivity (PSR sort gate): high polyreactivity

Sequence: QVQLVESGGGLFQAGGSLRISSAPSGRTYYRNAMGWYRQAPGIERELVAAISWSGGRTYYADSVKGRFTISRDNAKNTVYLQMNSLKPEDSAVYYCAALFIYRSYAALSRYDYWGQGTQVTVSS
- polyreactivity (PSR sort gate): high polyreactivity
